According to US20250084155A1 (University of Texas, published 2025):

Target: T1, HSP70 (human HSP70; the antigen of the binning, humanization and variant binding assays) (human, UniProt P0DMV8 1-641, limits assumed)
T1 construct: also called hu HSP70
Test: BLI, anti-human Fc capture, antigen 100 nM
Method: Binding assays were performed as follows. Antibody variants were immobilized using anti-human Fc onto the surface of a series of biosensors at […]. Antigen, at 100 nM, was passed over the surface to generate a binding response. Binding data for the antibody:antigen interactions were collected at 25° C. on the biosensors. In Table 14, X=610 represents captured antigen value (nM) at the beginning of the dissociation phase (measured at 610 seconds after the biosensor was initially contacted with antigen) and X=1495 represents captured antigen value (nM) at the end of the dissociation phase (measured at 1495 seconds after the biosensor was initially contacted with antigen). In Table 14, antibodies with an X=610 value greater than 0.2 and a % dissociation less than 10% are shown in bold.

T1 sequence (P0DMV8 whole entry, change not shown): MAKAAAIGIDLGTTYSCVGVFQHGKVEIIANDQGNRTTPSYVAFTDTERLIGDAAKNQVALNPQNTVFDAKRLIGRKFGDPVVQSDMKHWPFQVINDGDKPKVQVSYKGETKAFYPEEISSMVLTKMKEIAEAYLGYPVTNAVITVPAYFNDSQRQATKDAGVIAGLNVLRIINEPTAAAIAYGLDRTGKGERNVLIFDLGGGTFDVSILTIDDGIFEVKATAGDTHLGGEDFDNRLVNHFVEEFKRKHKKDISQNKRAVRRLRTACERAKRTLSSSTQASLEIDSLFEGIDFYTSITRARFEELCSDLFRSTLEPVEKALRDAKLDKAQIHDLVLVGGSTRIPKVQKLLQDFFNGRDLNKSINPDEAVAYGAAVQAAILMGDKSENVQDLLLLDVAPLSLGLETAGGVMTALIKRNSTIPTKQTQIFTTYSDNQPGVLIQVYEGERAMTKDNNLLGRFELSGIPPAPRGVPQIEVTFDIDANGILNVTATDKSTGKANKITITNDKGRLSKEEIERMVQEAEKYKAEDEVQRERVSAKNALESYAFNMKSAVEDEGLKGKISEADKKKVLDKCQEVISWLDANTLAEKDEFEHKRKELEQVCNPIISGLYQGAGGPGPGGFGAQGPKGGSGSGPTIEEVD

Binder	% Diss [%]
h77A-1.38 (antibody, V domains shown, captured by anti-human Fc) VH: QIQLVQSGTEVKKPGASVKVSCKASGYTFTNYGMNWVRQAPGQGLEWMGWINTYTGEPTYADDFKGRFTFTTDTSTRTAYMELRSLRSDDTAVYFCARYDHLMDYWGQGTLVTVSS VL: EIVLTQSPDSLAVSLGERATINCKSSQSLLNSGTRKNYLAWYQQKAGQSPKLLIYWTSTRESGVPDRFSGSGSGTDFTLTIDSLQAEDVAVYYCKQSYTLYTFGGGTKVEIK	10.5
h77A-1.52 (antibody, V domains shown, captured by anti-human Fc) VH: QIQLVQSGVEVKKPGASVKVSCKASGYIFTNYGMNWVRQAPGQGLEWMGWINTYTGEPRYADDFKGRFTFTTDTSTSTAYMELRSLRSDDTAVYFCARYDHRMDYWGQGTLVTVSS VL: EIVLTQSPDSLAVSLGERATINCKSSQSLLNSGTRKNYLAWYQQKAGQSPKLLIYWTSTRESGVPDRFSGSGSGTDFTLTIDSLQAEDVAVYYCKQSYTLYTFGGGTKVEIK	-115
h77A-1.57 (antibody, V domains shown, captured by anti-human Fc) VH: QIQLVQSGAEVKKPGASVKVSCKASGYTFTNYGMNWVRQAPGQGLEWMGWINTYTGEATYADDFKGRFTFTTDTSTSTAYMELRSLRSDDTAVYFCARYDHVMDYWGQGTLVTVSS VL: EIVLTQSPDSLAVSLGERATINCKSSQSLVNSGTRKNYLAWYQQKAGQSPKLLIYWTSTRESGVPDRFSGSGSGTDFTLTIDSLQTEDVAVYYCKQSYTLYTFGGGTKVEIK	25.9
h77A-1.55 (antibody, V domains shown, captured by anti-human Fc) VH: QIQLVQSGSEVKKPGASVKVSCKASGYTFTNYGMNWVRQAPGQGLEWMGWINTYTGEPTYGDDFKGRFTFTTDTSTSTAYMELRSLRSDDTAVYFCARYDHFMDYWGQGTLVTVSS VL: EIVLTQSPDSLSVSLGERATINCKSSQSLLNSGTRKNYLAWYQQKAGQSPKLLIYWTSTRESGVPDRFSGSGSGTDFTLTIDSLQAEDVAVYYCKQSYTLYTFGGGTKVEIK	26.7
h77A-1.36 (antibody, V domains shown, captured by anti-human Fc) VH: QIQLVQSGAEVKKPGASVKVSCKASGYTFTNYGMNWVRQAPGQGLEWMGWINTYTGEPTYADDFKGRFTFTTDTSTTTAYMELRSLRSDDTAVYFCARYDHHMDYWGQGTLVTVSS VL: EIVLTQSPDSLAVSLGERATINCKSSQSLFNSGTRKNYLAWYQQKAGQSPKLLIYWTSTRESGVPDRFSGSGSGTDFTLTIDSLQAEDVAVYYCKQSYTLYTFGGGTKVEIK	6.96
h77A-1.47 (antibody, V domains shown, captured by anti-human Fc) VH: QIQLVQSGTEVKKPGASVKVSCKASGYTFTNYGMNWVRQAPGQGLEWMGWINTYTGEPTYADDFKGRFTFTTDTSTSTAYMELRSLRSDDTAVYFCARYDHLMDYWGQGTLVTVSS VL: EIVLTQSPDSLAVSLGERATINCKSSQSLLNSGTRKNYLAWYQQKAGQSPKLLIYWTSTRESGVPDRFSGSGSGTDFTLTIDSLQTEDVAVYYCKQSYTLYTFGGGTKVEIK	13.6
h77A-1.48 (antibody, V domains shown, captured by anti-human Fc) VH: QIQLVQSGAEVKKPGASVKVSCKASGYTFTNYGMNWVRQAPGQGLEWMGWINTYTGEPTYADDFKGRFTFTTDTSTSTAYMDLRSLRSDDTAVYFCARYDHYMDYWGQGTLVTVSS VL: EIVLTQSPDSLAVSLGERATINCKSSQSLLNSGTRKNYLAWYQQKPGQSPKLLIYWTSTRESGVPDRFSGSGSGTDFTLTIDSLQAEDVAVYYCKQSYTLYTFGGGTKVEIK	34.5
h77A-1.45 (antibody, V domains shown, captured by anti-human Fc) VH: QIQLVQSGVEVKKPGASVKVSCKASGYTFTNYGMNWVRQAPGQGLEWMGWINTYTGEPTYADDFKGRFTFTTDTSTSTVYMELRSLRSDDTAVYFCARYDHAMDYWGQGTLVTVSS VL: EIVLTQSPDSLAVSLGERATINCKSSQSLLNSGTRKNYLAWYQQKAGQSPKLLIYWTSTRESGVPDRFSGSGSGTDFTLTIDSLQAEDVAVYYCKQSYSLYTFGGGTKVEIK	33.9
h77A-1.35 (antibody, V domains shown, captured by anti-human Fc) VH: QIQLVQSGTEVKKPGASVKVSCKASGYTFTNYGMNWVRQAPGQGLEWMGWINTYTGEPTYADDFKGRFTFTTDTSTSTAYMELRSLRSDDTAVYFCARYDHHMDYWGQGTLVTVSS VL: EIVLTQSPDSLTVSLGERATINCKSSQSLLNSGTRKNYLAWYQQKAGQSPKLLIYWTSTRESGVPDRFSGSGSGTDFTLTIDSLQAEDVAVYYCKQSYTLYTFGGGTKVEIK	4.38

The next lines start with the values.

% Diss [%]	Binder
28.3	h77A-1.29 (antibody, V domains shown, captured by anti-human Fc) VH: QIQLVQSGAEVKKPGASVKVSCKASGYTFTNYGMNWVRQAPGQGLEWMGWINTYTGEPTYADDFKGRFTFTTDTSTSTAYMELRSLRSDDTAVYFCARYDHFMDYWGQGTLVTVSS VL: EIVLTQSPDSLAVSLGERATINCKSSQSLFNSGTRKNYLAWYQQKAGQSPKLLIYWTSTRESGVPDRFSGSGSGTDFTLTIDSLQAEDVAVYYCKQSYTLYTFGGGTKVEIK
21.1	h77A-1.43 (antibody, V domains shown, captured by anti-human Fc) VH: QIHLVQSGAEVKKPGASVKVSCKASGYTFTNYGMNWVRQAPGQGLEWMGWINTYTGEPTYADDFKGRFTFTTDTSTSTVYMELRSLRSDDTAVYFCARYDHAMDYWGQGTLVTVSS VL: EIVLTQSPDSLAVSLGERATINCKSSQSLLNSGTRKNYLAWYQQKAGQSPKLIIYWTSTRESGVPDRFSGSGSGTDFTLTIDSLQAEDVAVYYCKQSYTLYTFGGGTKVEIK
33.5	h77A-1.42 (antibody, V domains shown, captured by anti-human Fc) VH: QIHLVQSGAEVKKPGASVKVSCKASGYTFTNYGMNWVRQAPGQGLEWMGWINTYTGEPTYADDFKGRFTFTTDTSTSTAYMELRSLRSDDTAVYFCTRYDHRMDYWGQGTLVTVSS VL: EIVLTQSPDSLAVSLGERATINCKSSQSLLNSGTRKNYLAWYQQKAGQSPKLLIYWTSTRESGVPDRFSGSGSGTDFTLTIDSLQAEDVAVYYCKQSYTLYTFGGGTKVEIK
-41.2	h77A-1.54 (antibody, V domains shown, captured by anti-human Fc) VH: QIQLVQSGAEVKKPGASVKVSCKASGYTFTKYGMNWVRQAPGQGLEWMGWINTYTGEPKYGDDFKGRFTFTTDTSTSTAYMELRSLRSDDTAVYFCARYDHRMDYWGQGTLVTVSS VL: EIVLTQSPDSLAVSLGERATINCKSSQSLLNSGTRKNYLAWYQQKAGQSPKLLIYWTSTRESGVPDRFSGSGSGTDFTLTIDSLQAEDVAVYYCKQSYTLYTFGGGTKVEIK
-3.52	h77A-1.31 (antibody, V domains shown, captured by anti-human Fc) VH: QIQLVQSGAEVKKPGASVKVSCKASGYTFTNYGMNWVRQAPGQGLEWMGWINTYTGEPTYADDFKGRFTFTTDTSTSTAYMELRSLRSDDTAVYFCARYDHPMDYWGQGTLVTVSS VL: EIVLTQSPDSLAVSLGERATINCKSSQSLLNSGTRKNYLAWYQQKAGQSPKLLIYWTSTRESGVPDRFSGSGSGTDFTLTIDRLQAEDVAVYYCKQSYTLYTFGGGTKVEIK
11.9	h77A-1.40 (antibody, V domains shown, captured by anti-human Fc) VH: QIQLVQSGAEVKKPGASVKVSCKASGYTFTNYGMNWVRQAPGQGLEWMGWINTYTGEPTYADDFKGRFTFTTDTSTSTAYMELRSLRSDDTAVYFCARYDHYMDYWGQGTLVTVSS VL: EIVLTQSPDSLTVSLGERATINCKSSQSLLNSGTRKNYLAWYQQKAGQSPKLLIYWTSTRESGVPDRFSGSGSGTDFTLTIDSLQAEDVAVYYCKQSYNLYTFGGGTKVEIK
22.8	h77A-1.37 (antibody, V domains shown, captured by anti-human Fc) VH: QIQLVQSGAEVKKPGASVKVSCKASGYTFTKYGMNWVRQAPGQGLEWMGWINTYTGESTYADDFKGRFTFTTDTSTSTAYMELRSLRSDDTAVYFCARYDHVMDYWGQGTLVTVSS VL: EIVLTQSPDSLAVSLGERATINCKSSQSLLNSGTRKNYLAWYQQKAGQSPKLLIYWTSTRESGVPDRFSGSGSGTDFTLTIDSLQAEDVAVYYCKQSYTLYTFGGGTKVEIK
11.1	h77A-1.53 (antibody, V domains shown, captured by anti-human Fc) VH: QIQLVQSGAEVKKPGASVKVSCKASGYTFTNYGMNWVRQAPGQGLEWMGWINTYTGEPKYTDDFKGRFTFTTDTSTRTAYMELRSLRSDDTAVYFCARYDHAMDYWGQGTLVTVSS VL: EIVLTQSPDSLSVSLGERATINCKSSQSLLNSGTRKNYLAWYQQKAGQSPKLLIYWTSTRESGVPDRFSGSGSGTDFTLTIDSLQAEDVAVYYCKQSYTLYTFGGGTKVEIK
20.6	h77A-1.33 (antibody, V domains shown, captured by anti-human Fc) VH: QIQLVQSGAEVKKPGASVKVSCKASGYTFTKYGMNWVRQAPGQGLEWMGWINTYTGEPTYADDFKGRFTFTTDTSTSTAYMELRSLRSDDTAVYFCARYDHNMDYWGQGTLVTVSS VL: EIVLTQSPDSLAVSLGERATINCKSSQSLLNSGTRKNYLAWYQQKAGQSPKLLIYWTSTRESGVPDRFSGSGSGTDFTLTIDSLQAEDVAVYYCKQSYTLYTFGGGTKVEIK
21	h77A-1.39 (antibody, V domains shown, captured by anti-human Fc) VH: QIQLVQSGAEVKKPGASVKVSCKASGYTFTNYGMNWVRQAPGQGLEWMGWINTYTGEPTYSDDFKGRFTFTTDTSTRTAYMELRSLRSDDTAVYFCARYDHAMDYWGQGTLVTVSS VL: EIVLTQSPDSLAVSLGERATINCKSSQSLLNSGTRKNYLAWYQQKAGQSPKLLIYWTSTRESGVPDRFSGSGSGTDFTLTIDSLQAEDVAVYYCKQSYNLYTFGGGTKVEIK
34.2	h77A-1.41 (antibody, V domains shown, captured by anti-human Fc) VH: QIQLVQSGAEVKKPGASVKVSCKASGYTFTNYGMNWVRQAPGQGLEWMGWINTYTGEPTYADDFKGRFTFTTDTSTTTAYMELRSLRSDDTAVYFCARYDHVMDYWGQGTLVTVSS VL: EIVLTQSPDSLAVSLGERATINCKSSQSLLNSGTRKNYLAWYQQKPGQSPKLLIYWTSTRESGVPDRFSGSGSGTDFTLTIDSLQAEDVAVYYCKQSYTLYTFGGGTKVEIK
11.2	h77A-1.50 (antibody, V domains shown, captured by anti-human Fc) VH: QIHLVQSGVEVKKPGASVKVSCKASGYTFTNYGMNWVRQAPGQGLEWMGWINTYTGEPTYTDDFKGRFTFTTDTSTSTAYMELRSLRSDDTAVYFCARYDHAMDYWGQGTLVTVSS VL: EIVLTQSPDSLAVSLGERATINCKSSQSLLNSGTRKNYLAWYQQKAGQSPKLLIYWTSTRESGVPDRFSGSGSGTDFTLTIDSLQAEDVAIYYCKQSYTLYTFGGGTKVEIK
